From US20210261605A1

biological target: IgG1 (product of Sigma-Aldrich); test: SPR (Biacore T100), Fc-binding protein immobilized on CM5 chip, IgG1 in flow

Binder | Kd [nM] | koff [s⁻¹] | kon [M⁻¹ s⁻¹]
FcR35d-containing Fc-binding protein (SEQ ID NO: 7) (receptor) KIEEAMGMRTGDMPKAEVILEPPWNRVLEQDSVTLKCRGAHSPDDDSTQWFHNERLIPSQASSFIIDSASVDDSGEYRCQTSLSTLSDPVQLEVHIGWLLLQAPRWEFVEGEPIHLRCHSWRNTALHKVMFLQNGKVRKYFHHNSDFVIPKATLEDSGSYSCRGLVGRKKVSSGAVDITVTQGGHHHHHH | 39 | 0.031 | 810000
FcR35c-containing Fc-binding protein (SEQ ID NO: 5) (receptor) KIEEAMGMRTGDMPKAEVILEPPWNRVLEQDSVTLKCRGAHSPDDDSTQWFHNESLIPSQASSFIIDSASVEDSGEYRCQTSLSTLSEPVLLEVHIGWLLLQAPRWEFVEGEPIHLRCHSWRNTALHKVMFLQNGKVRKYFHHNSDFVIPKATLEDSGSYSCRGLVGRKNVSSEAVEITVTPGGHHHHHH | 40 | 0.022 | 540000
FcR9_I (SEQ ID NO: 24), Fc-binding protein containing the amino acid substitution Val192Ile (receptor) KIEEAMGMRTEDLPKAEVILEPQWNRVLEKDSVTLKCRGAYSPEDNSTQWFHNESLISSQASSYLIDAATVDDSGEYRCQTSLSTLSDPVQLEVHIGWLLLQAPRWEFKEGDPIHLRCHSWKNTALHKVTYLQNGKGRKYFHHNSDFYIPKATLKDSGSYSCRGLIGSKNVSSETVNITITQGGHHHHHH | 60 | 0.012 | 200000
FcR9_A (SEQ ID NO: 26), Fc-binding protein containing the amino acid substitution Val192Ala (receptor) KIEEAMGMRTEDLPKAEVILEPQWNRVLEKDSVTLKCRGAYSPEDNSTQWFHNESLISSQASSYLIDAATVDDSGEYRCQTSLSTLSDPVQLEVHIGWLLLQAPRWEFKEGDPIHLRCHSWKNTALHKVTYLQNGKGRKYFHHNSDFYIPKATLKDSGSYSCRGLAGSKNVSSETVNITITQGGHHHHHH | 36 | 0.0035 | 100000
Fc-binding protein FcR9 (SEQ ID NO: 20) (receptor) KIEEAMGMRTEDLPKAEVILEPQWNRVLEKDSVTLKCRGAYSPEDNSTQWFHNESLISSQASSYLIDAATVDDSGEYRCQTSLSTLSDPVQLEVHIGWLLLQAPRWEFKEGDPIHLRCHSWKNTALHKVTYLQNGKGRKYFHHNSDFYIPKATLKDSGSYSCRGLVGSKNVSSETVNITITQGGHHHHHH | 77 | 0.031 | 410000
FcR9_F, Fc-binding protein having phenylalanine substituting for valine at position 192 of FcR9 (SEQ ID NO: 20) (receptor) KIEEAMGMRTEDLPKAEVILEPQWNRVLEKDSVTLKCRGAYSPEDNSTQWFHNESLISSQASSYLIDAATVDDSGEYRCQTSLSTLSDPVQLEVHIGWLLLQAPRWEFKEGDPIHLRCHSWKNTALHKVTYLQNGKGRKYFHHNSDFYIPKATLKDSGSYSCRGLFGSKNVSSETVNITITQGGHHHHHH | 3300 | 0.3 | 90000
FcR36i-containing Fc-binding protein (SEQ ID NO: 9) (receptor) KIEEAMGMRTGDMPKAEVILEPPWNRVLEQDSVTLKCRGAHSPDDDSTQWFHNERLIPSQASSFIIDSASVDDSGEYRCQTSLSTLSDPVQLEVHIGWLLLQAPRWEFVEGEPIHLRCHSWRNTALHKVMFLQNGKVRKYFHHNSDFVIPKATLEDSGSYSCRGLIGRKKVSSGAVDITVTQGGHHHHHH | 43 | 0.038 | 900000
FcR36a-containing Fc-binding protein (SEQ ID NO: 11) (receptor) KIEEAMGMRTGDMPKAEVILEPPWNRVLEQDSVTLKCRGAHSPDDDSTQWFHNERLIPSQASSFIIDSASVDDSGEYRCQTSLSTLSDPVQLEVHIGWLLLQAPRWEFVEGEPIHLRCHSWRNTALHKVMFLQNGKVRKYFHHNSDFVIPKATLEDSGSYSCRGLAGRKKVSSGAVDITVTQGGHHHHHH | 95 | 0.13 | 1.4e+06
